IntAct's records for PubMed 12649160

B1: Fanconi anemia group G protein (Homo sapiens), O15287 (parent)
chain: MSRQTTSVGSSCLDLWREKNDRLVRQAKVAQNSGLTLRRQQLAQDALEGLRGLLHSLQGLPAAVPVLPLELTVTCNFIILRASLAQGFTEDQAQDIQRSLERVLETQEQQGPRLEQGLRELWDSVLRASCLLPELLSALHRLVGLQAALWLSADRLGDLALLLETLNGSQSGASKDLLLLLKTWSPPAEELDAPLTLQDAQGLKDVLLTAFAYRQGLQELITGNPDKALSSLHEAASGLCPRPVLVQVYTALGSCHRKMGNPQRALLYLVAALKEGSAWGPPLLEASRLYQQLGDTTAELESLELLVEALNVPCSSKAPQFLIEVELLLPPPDLASPLHCGTQSQTKHILASRCLQTGRAGDAAEHYLDLLALLLDSSEPRFSPPPSPPGPCMPEVFLEAAVALIQAGRAQDALTLCEELLSRTSSLLPKMSRLWEDARKGTKELPYCPLWVSATHLLQGQAWVQLGAQKVAISEFSRCLELLFRATPEEKEQGAAFNCEQGCKSDAALQQLRAAALISRGLEWVASGQDTKALQDFLLSVQMCPGNRDTYFHLLQTLKRLDRRDEATALWWRLEAQTKGSHEDALWSLPLYLESYLSWIRPSDRDAFLEEFRTSLPKSCDL
partner: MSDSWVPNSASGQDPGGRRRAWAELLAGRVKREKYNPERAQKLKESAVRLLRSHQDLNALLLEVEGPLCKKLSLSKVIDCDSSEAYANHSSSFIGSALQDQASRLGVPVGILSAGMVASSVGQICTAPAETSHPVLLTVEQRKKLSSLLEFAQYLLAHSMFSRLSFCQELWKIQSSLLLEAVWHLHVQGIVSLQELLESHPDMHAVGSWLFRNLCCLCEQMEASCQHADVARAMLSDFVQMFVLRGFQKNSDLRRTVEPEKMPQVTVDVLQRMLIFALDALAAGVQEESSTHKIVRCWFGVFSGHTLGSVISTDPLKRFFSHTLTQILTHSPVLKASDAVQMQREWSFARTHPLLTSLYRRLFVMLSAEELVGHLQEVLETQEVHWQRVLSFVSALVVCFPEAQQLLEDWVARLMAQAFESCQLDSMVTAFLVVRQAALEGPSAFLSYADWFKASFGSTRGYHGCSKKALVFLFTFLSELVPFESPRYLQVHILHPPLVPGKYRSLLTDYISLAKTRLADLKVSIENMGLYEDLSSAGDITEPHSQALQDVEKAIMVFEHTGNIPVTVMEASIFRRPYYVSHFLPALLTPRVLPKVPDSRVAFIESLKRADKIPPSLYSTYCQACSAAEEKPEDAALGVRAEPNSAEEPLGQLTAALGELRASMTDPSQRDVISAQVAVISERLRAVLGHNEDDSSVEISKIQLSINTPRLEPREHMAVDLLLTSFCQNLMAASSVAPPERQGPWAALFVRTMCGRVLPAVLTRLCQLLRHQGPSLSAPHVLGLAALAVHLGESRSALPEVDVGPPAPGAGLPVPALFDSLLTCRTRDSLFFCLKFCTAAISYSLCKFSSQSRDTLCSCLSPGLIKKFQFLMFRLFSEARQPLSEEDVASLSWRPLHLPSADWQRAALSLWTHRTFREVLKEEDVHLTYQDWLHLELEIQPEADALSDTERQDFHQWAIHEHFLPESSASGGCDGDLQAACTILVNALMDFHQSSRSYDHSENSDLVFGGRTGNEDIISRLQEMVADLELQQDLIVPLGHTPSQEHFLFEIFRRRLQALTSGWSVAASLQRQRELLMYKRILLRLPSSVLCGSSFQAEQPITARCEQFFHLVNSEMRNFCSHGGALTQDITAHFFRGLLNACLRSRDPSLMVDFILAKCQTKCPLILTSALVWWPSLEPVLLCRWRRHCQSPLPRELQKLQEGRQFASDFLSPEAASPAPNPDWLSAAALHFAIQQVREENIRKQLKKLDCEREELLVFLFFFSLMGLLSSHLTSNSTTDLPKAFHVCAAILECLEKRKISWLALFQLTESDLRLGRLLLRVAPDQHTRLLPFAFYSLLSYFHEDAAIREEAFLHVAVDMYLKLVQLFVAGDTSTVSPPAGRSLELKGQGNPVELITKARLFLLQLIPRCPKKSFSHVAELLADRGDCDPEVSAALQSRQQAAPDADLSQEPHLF
B2: Fanconi anemia group C protein (Homo sapiens), Q00597 (parent)
chain: MAQDSVDLSCDYQFWMQKLSVWDQASTLETQQDTCLHVAQFQEFLRKMYEALKEMDSNTVIERFPTIGQLLAKACWNPFILAYDESQKILIWCLCCLINKEPQNSGQSKLNSWIQGVLSHILSALRFDKEVALFTQGLGYAPIDYYPGLLKNMVLSLASELRENHLNGFNTQRRMAPERVASLSRVCVPLITLTDVDPLVEALLICHGREPQEILQPEFFEAVNEAILLKKISLPMSAVVCLWLRHLPSLEKAMLHLFEKLISSERNCLRRIECFIKDSSLPQAACHPAIFRVVDEMFRCALLETDGALEIIATIQVFTQCFVEALEKASKQLRFALKTYFPYTSPSLAMVLLQDPQDIPRGHWLQTLKHISELLREAVEDQTHGSCGGPFESWFLFIHFGGWAEMVAEQLLMSAAEPPTALLWLLAFYYGPRDGRQQRAQTMVQVKAVLGHLLAMSRSSSLSAQDLQTVAGQGTDTDLRAPAQQLIRHLLLNFLLWAPGGHTIAWDVITLMAHTAEITHEIIGFLDQTLYRWNRLGIESPRSEKLARELLKELRTQV
partner: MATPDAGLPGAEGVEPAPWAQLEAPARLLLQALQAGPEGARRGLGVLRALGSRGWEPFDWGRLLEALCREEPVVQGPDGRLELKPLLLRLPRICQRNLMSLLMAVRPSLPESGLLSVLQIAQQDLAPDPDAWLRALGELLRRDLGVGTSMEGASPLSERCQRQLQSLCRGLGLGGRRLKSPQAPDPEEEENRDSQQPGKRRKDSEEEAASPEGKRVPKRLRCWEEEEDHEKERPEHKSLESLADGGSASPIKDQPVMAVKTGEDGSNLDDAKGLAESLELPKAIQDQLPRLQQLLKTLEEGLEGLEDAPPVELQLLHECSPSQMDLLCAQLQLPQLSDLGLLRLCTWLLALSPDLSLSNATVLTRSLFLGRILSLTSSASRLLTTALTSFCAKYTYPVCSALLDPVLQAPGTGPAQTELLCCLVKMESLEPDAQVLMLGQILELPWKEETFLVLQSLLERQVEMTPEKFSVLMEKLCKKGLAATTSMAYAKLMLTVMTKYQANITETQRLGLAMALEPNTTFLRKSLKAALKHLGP

Variants of: B1
Conditions: with fanca_human FANCA

Variant | effect of a mutation on the interaction
L71P | disrupting interaction

Variants of: B2
Conditions: with fance_human FANCE

Variant | effect of a mutation on the interaction
MAQDSVDLSCDYQFWMQKLSVWDQASTLETQQDTCLHVAQFQEFLRKMYEALKEMDSNTVIERFPTIGQLLAKACWNPFILAYDESQKILIWCLCCLINKEPQNSGQSKLNSWIQGVLSHILSALRFDKEVALFTQGLGYAPIDYYPGLLKNMVLSLASELRENHLNGFNTQRRMAPERVASLSRVCVPLITLTDVDPLVEALLICHGREPQEILQPEFFEAVNEAILLKKISLPMSAVVCLWLRHLPSLEKAMLHLFEKLISSERNCLRRIECFIKDSSLPQAACHPAIFRVVDEMFRCALLETDGALEIIATIQVFTQCFVEALEKASKQLRFALKTYFPYTSPSLAMVLLQDPQDIPRGHWLQTLKHISELLREAVEDQTHGSCGGPFESWFLFIHFGGWAEMVAEQLLMSAAEPPTALLWLLAFYYGPRDGRQQRAQTMVQVKAVLGHLLAMSRSSSLSAQDLQTVAGQGTDTDLRAPAQQLIRHLLLNFLLWAPGGHTIAWDVITLMAHTAEITHEIIGFLDQTLYRWNRLGIESPRSEKLARELLKEPRTQV [L554P] | disrupting interaction
